Data on 5 substances can be found in patent US20240084017A1.

Assay [1] concerns the target human Mac-1 (integrin αMβ2, CD11b/CD18) (human) (UniProt P11215). Briefly: flow cytometry, HEK293/Mac-1 cells; MFI in PBS over MFI in PBS/MnCl2. For orientation: Flow cytometry measures light scatter and fluorescence of single cells or particles in a stream.
The target is the same in assay [2]. The assay can be described thus: flow cytometry, HEK293/Mac-1 cells (clone 1-4), PBS (Mock).
For assay [3] the target is unchanged. The assay can be described thus: flow cytometry, HEK293/Mac-1 cells (clone 1-4), PBS/MnCl2 (Mn2+).
The target is the same in assay [4]. The assay can be described thus: flow cytometry, HEK293/Mac-1 cells, PBS/MnCl2 (Mn2+), 10 µg/ml of this antibody; binding of reporter mAb m24 read.
For assay [5] the target is unchanged. The assay can be described thus: flow cytometry, HEK293/Mac-1 cells, PBS (Mock), 10 µg/ml of this antibody; binding of reporter mAb KIM127 read.
The target is the same in assay [6]. Briefly: flow cytometry, HEK293/Mac-1 cells, PBS/MnCl2 (Mn2+), 10 µg/ml of this antibody; binding of reporter mAb KIM127 read.
Assay [7] shares this target. The assay can be described thus: flow cytometry, HEK293/Mac-1 cells, PBS (Mock), 10 µg/ml of this antibody; binding of reporter mAb m24 read.
Assay [8] has the same target. The assay can be described thus: flow cytometry, HEK293/Mac-1 cells, PBS (Mock); binding of reporter mAb KIM127 read; control IgG4, the reference set to 1.
The target is the same in assay [9]. The assay can be described thus: flow cytometry, HEK293/Mac-1 cells, PBS (Mock); binding of reporter mAb m24 read; control IgG4, the reference set to 1.
The target is the same in assay [10]. The assay can be described thus: flow cytometry, HEK293/Mac-1 cells, PBS/MnCl2 (Mn2+); binding of reporter mAb m24 read; control IgG4, the reference set to 1.
Assay [11] has the same target. Briefly: flow cytometry, HEK293/Mac-1 cells, PBS/MnCl2 (Mn2+); binding of reporter mAb KIM127 read; control IgG4, the reference set to 1.
Assay [12] shares this target. Briefly: flow cytometry, HEK293/Mac-1 cells; MFI in PBS over MFI in PBS/MnCl2; isotype control.
Assay [13] has the same target. Briefly: flow cytometry, HEK293/Mac-1 cells (clone 1-4), PBS/MnCl2 (Mn2+); isotype control.
The target is the same in assay [14]. The assay can be described thus: flow cytometry, HEK293/Mac-1 cells (clone 1-4), PBS (Mock); isotype control.

As to “CD11b activation-sensing mAb (CBRM1/5) (antibody)”, in assay [1], the Mock/Mn^2+ Ratio was determined as 0.79. Besides, in assay [2], the Mock MFI is 143000 MFI. In [3], the Mn^2+ MFI is 181000 MFI.

With “CD11b specific mAb (clone ICRF44) (antibody)”, the m24 (Expression relative to IgG4) (relative to IgG4) in assay [4] and in assay [7] was 0.66 throughout. For the same substance, the values for the KIM127 (Expression relative to IgG4) (relative to IgG4) in assay [5] and in [6] were 0.94 and 0.75, respectively. Moreover, in assay [1], the Mock/Mn^2+ Ratio came out at 1.01. The same substance displayed a Mock MFI in assay [2] of 805000 MFI. The substance also returned a Mn^2+ MFI in assay [3] of 801000 MFI.

On to IgG4 control (antibody), for which the KIM127 (Expression relative to IgG4) (relative to IgG4) in assay [8] and in assay [11] was 1 in each case. Besides, the m24 (Expression relative to IgG4) (relative to IgG4) in [9] and in assay [10] was 1 in each case.

Take M1/70 (antibody): the m24 (Expression relative to IgG4) (relative to IgG4) in assay [4] is 0.8; in assay [7], 0.71. Also, the results for the KIM127 (Expression relative to IgG4) (relative to IgG4) in assay [5] and in assay [6] were 0.94 and 0.84, respectively.

isotype control IgG (antibody): the Mock/Mn^2+ Ratio in assay [12] was 1.01. In assay [13], this substance had a Mn^2+ MFI of 935 MFI. In assay [14], this substance displayed a Mock MFI of 941 MFI.
